From PMC2367731 (Nucleic Acids Research, 2008) come the findings set out here.

In test [1] the target is His6-tagged H3.1/H4 complex (human, UniProt P68431;P62805). Put plainly: pull-down.
In test [2] the target is His6-tagged H3t/H4 complex (human, UniProt Q16695;P62805). Put plainly: pull-down.
Test [3] deals with T1, H3.1/H4 complex (His6 tags removed) (human, UniProt P68431;P62805). The test is described as follows: native gel or EMSA. A general note: In EMSA bound probe runs differently from free probe, usually more slowly.
In test [4] the target is T2, H3t/H4 complex (His6 tags removed) (human, UniProt Q16695;P62805). The test is described as follows: native gel or EMSA.
Test [5] addresses T1, H3.1/H4 complex (His6 tags removed). The test is described as follows: pull-down.
Test [6] concerns the target T2, H3t/H4 complex (His6 tags removed). The test is described as follows: pull-down.

B1: human Nap2, His6 tag removed (natural protein)
chain: MADHSFSDGVPSDSVEAAKNASNTEKLTDQVMQNPRVLAALQERLDNVPHTPSSYIETLPKAVKRRINALKQLQVRCAHIEAKFYEEVHDLERKYAALYQPLFDKRREFITGDVEPTDAESEWHSENEEEEKLAGDMKSKVVVTEKAAATAEEPDPKGIPEFWFTIFRNVDMLSELVQEYDEPILKHLQDIKVKFSDPGQPMSFVLEFHFEPNDYFTNSVLTKTYKMKSEPDKADPFSFEGPEIVDCDGCTIDWKKGKNVTVKTIKKKQKHKGRGTVRTITKQVPNESFFNFFNPLKASGDGESLDEDSEFTLASDFEIGHFFRERIVPRAVLYFTGEAIEDDDNFEEGEEGEEEELEGDEEGEDEDDAEINPKV
B1: the binding result in test [1] and in test [2] was “binds” in each case.

B2: human Nap1 (nucleosome assembly protein 1), His6 tag removed (natural protein)
chain: MADIDNKEQSELDQDLDDVEEVEEEETGEETKLKARQLTVQMMQNPQILAALQERLDGLVETPTGYIESLPRVVKRRVNALKNLQVKCAQIEAKFYEEVHDLERKYAVLYQPLFDKRFEIINAIYEPTEEECEWKPDEEDEISEELKEKAKIEDEKKDEEKEDPKGIPEFWLTVFKNVDLLSDMVQEHDEPILKHLKDIKVKFSDAGQPMSFVLEFHFEPNEYFTNEVLTKTYRMRSEPDDSDPFSFDGPEIMGCTGCQIDWKKGKNVTLKTIKKKQKHKGRGTVRTVTKTVSNDSFFNFFAPPEVPESGDLDDDAEAILAADFEIGHFLRERIIPRSVLYFTGEAIEDDDDDYDEEGEEADEEGEEEGDEENDPDYDPKKDQNPAECKQQ
In the case of B2, the binding result in test [3], in test [4], in test [1] and in test [2] was “binds” in each case.

B3: His6-tagged human Nap1 (natural protein)
chain: MADIDNKEQSELDQDLDDVEEVEEEETGEETKLKARQLTVQMMQNPQILAALQERLDGLVETPTGYIESLPRVVKRRVNALKNLQVKCAQIEAKFYEEVHDLERKYAVLYQPLFDKRFEIINAIYEPTEEECEWKPDEEDEISEELKEKAKIEDEKKDEEKEDPKGIPEFWLTVFKNVDLLSDMVQEHDEPILKHLKDIKVKFSDAGQPMSFVLEFHFEPNEYFTNEVLTKTYRMRSEPDDSDPFSFDGPEIMGCTGCQIDWKKGKNVTLKTIKKKQKHKGRGTVRTVTKTVSNDSFFNFFAPPEVPESGDLDDDAEAILAADFEIGHFLRERIIPRSVLYFTGEAIEDDDDDYDEEGEEADEEGEEEGDEENDPDYDPKKDQNPAECKQQ
Regarding B3, the binding result in test [5] and in test [6] was “binds” each time.

B4: His6-tagged human Nap2 (natural protein)
chain: MADHSFSDGVPSDSVEAAKNASNTEKLTDQVMQNPRVLAALQERLDNVPHTPSSYIETLPKAVKRRINALKQLQVRCAHIEAKFYEEVHDLERKYAALYQPLFDKRREFITGDVEPTDAESEWHSENEEEEKLAGDMKSKVVVTEKAAATAEEPDPKGIPEFWFTIFRNVDMLSELVQEYDEPILKHLQDIKVKFSDPGQPMSFVLEFHFEPNDYFTNSVLTKTYKMKSEPDKADPFSFEGPEIVDCDGCTIDWKKGKNVTVKTIKKKQKHKGRGTVRTITKQVPNESFFNFFNPLKASGDGESLDEDSEFTLASDFEIGHFFRERIVPRAVLYFTGEAIEDDDNFEEGEEGEEEELEGDEEGEDEDDAEINPKV
With B4, the binding result in test [5] and in test [6] was “binds” each time.
